The results in this text go back to the nanobody polyreactivity screen of Harvey et al. (2022).

The nature of the data set: yeast display, Sf9 membrane polyspecificity reagent, FACS + sequencing; frameworks hold sequencing errors. Put shortly: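 Sorting gates, low and high (top ~1%), were placed on anti-HA fluorescence to track expression and on streptavidin fluorescence to track reagent binding. A clone's polyreactivity label is taken from the gate it came out of. The reagent was 10% biotinylated, detergent-solubilized Sf9 membrane, applied for 1 hour at 4 °C to galactose-induced yeast display cells.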
On to “QVQLVESGGGLVQAGGSLRLRCAASGRNFVANGKGWYRQAPGKERELVAAINDGDDTYYADSVKGRFTISRDNAQNTVYLQMNSLKPEDTEVYYCAADIIYGYEVYTYTSDYWGQGTQVTVSS”, for which the “polyreactivity (PSR sort gate)” value is listed as “low polyreactivity”.

As for “QVQLVESGGGLVQAGGSLRLRCAASGRTFDKYAMGWYRQAPGKERELVAAISYDAGRTYYADSVKGRFTISRDNAKNTVYLQMNSLKPEDNAVYFCNAVRFRGFGWGQGTQVTVSS”, the “polyreactivity (PSR sort gate)” value was “high polyreactivity”.

“QVQLVESGGGLVQAGGSLRLRCAASGRTFGRYAMGWYRQAPGKERELVAAISTSGGSTFYADSVKGRITISRDNAKNTVYLLMNSLKPEDTAVYYCAADYRRFWGRYGYWGQGTQVTVSS”: the “polyreactivity (PSR sort gate)” value is reported as “high polyreactivity”.

As for “QVQLVESGGGLVQAGGSLRLRCAASGRTFHAYVMGWYIQAPVKERELVADISSGGDTYADSVKGRFTISRDNAKNTVYLQMNSLKPEDTAVYYCAVDLIQDESGYWGQGTQVTVSS”, the “polyreactivity (PSR sort gate)” value is “low polyreactivity”.

Consider “QVQLVESGGGLVQAGGSLRLRCAASGRTFRRNAMGWYRQAPGKERELVAGISWGGGSTYYADSVKGRFTISRDNAKNTVYLQMNSLKPEDTAVYYCAASGYFYRAYGYWGQGTQVTVSS”, for which the “polyreactivity (PSR sort gate)” value was “high polyreactivity”.

As for “QVQLVESGGGLVQAGGSLRLRCAASGRTIASYTMGWYRQAPGKEREWVAAISKSGGSTYYADSVKGRFTNSRDNAKNTVYLQMNSLKPEDTAVYYCAKRRSGNVRKYDYWGQGTQVTVSS”, the “polyreactivity (PSR sort gate)” value is “high polyreactivity”.

Consider “QVQLVESGGGLVQAGGSLRLRCAASGRTVVYYAMGWSRPAAGKETEFVATITSSGGSTYYADSVKGRFTISRDNAKNSVYLQMNSLKPEDTAVNYCAASPNIGYSKVSKYYYRGQGTQVTVSS”, for which the “polyreactivity (PSR sort gate)” value is on record as “high polyreactivity”.

For the sequence “QVQLVESGGGLVQAGGSLRLRCAASGSIFFHNAMGWYRQAPVKERELVATINRSDGTYYADSVKGRFTISRDNAKNTVYFQMNSLKPEDTAVYYCAVDHSFNDELDYWGQGTQVTVSS”, the “polyreactivity (PSR sort gate)” value is “low polyreactivity”.

Regarding “QVQLVESGGGLVQAGGSLRLRCAASGSIFKGYAMGSYRQAPGKERELVAAIRGSGGSSYYADSVKGRFTISRDNAKNTVYFQLISLTPEDTAFYYCAAVAYTGGPRKLGFNYWGQATQVTVSS”, the “polyreactivity (PSR sort gate)” value is “high polyreactivity”.

Consider “QVQLVESGGGLVQAGGSLRLRCAASGSIFPLYAMGWYRQAPGKERELVAAITSSGGRTYYADSVKGRFTISRDNAKNTVYLQMNSLKPEDTAVYYCNAGYYVRRDYDYWGQGTQVTVSS”, for which the “polyreactivity (PSR sort gate)” value was “low polyreactivity”.

“QVQLVESGGGLVQAGGSLRLRCAASGSIFPPYAMGWYRQAPGKERELVAVISFSSGRTYYADSVKGRFTISRDNAKNTVYLQMNSQKPEDTAVYYCAADYESRNKFDYWGQGTQVTVTS”: the “polyreactivity (PSR sort gate)” value was “low polyreactivity”.

Consider “QVQLVESGGGLVQAGGSLRLRCAASGSIFPYNAMGWYRQAPGKERELVAAISKRGRSTYYADSVKGRFTISRDNAKNTVYLHMNSLKPEDTAVYYSAARYPPYRSWYSYDYWGQGTQVTVSS”, for which the “polyreactivity (PSR sort gate)” value was “low polyreactivity”.

In the case of “QVQLVESGGGLVQAGGSLRLRCAASGSIFRVYAMGWYRQAPGKERELVATITWNGGSTYYADSVKGRFTISRDNAKNTVYLQMNSLKPEDTAVFYCAKPSSWRRVLPIDYWGQGTQVTVSS”, the “polyreactivity (PSR sort gate)” value is “low polyreactivity”.

As for “QVQLVESGGGLVQAGGSLRLRCAASGSIFRYNPMGWYRQAPGKERELVAPISWSGGHTYYADSVKGRFTISRDNAKNTDYLQLNSLKPEDTAVYYWATVPRKTPGNAELDYWGQGTQVTVSS”, the “polyreactivity (PSR sort gate)” value was “high polyreactivity”.

For the sequence “QVQLVESGGGLVQAGGSLRLRCAASGSIFWYYTMGWYRQAPGIERELVATLTRSGSRTYDADSVKGRCTISRDNAKNTVYLQMNSLKPEDTAVYYCAKDYGPWTYDYWGQGTQVTVSS”, the “polyreactivity (PSR sort gate)” value was “low polyreactivity”.

Consider “QVQLVESGGGLVQAGGSLRLRCAASGSIFYRNPMGWYRQAPGKESELVAAITSRGGRTYYADSVKGRFTISRDNAKNTVYLQMNSLKPEDTAVYYCNKRDVYSTSDYDYWGQGTQVTVSS”, for which the “polyreactivity (PSR sort gate)” value is “high polyreactivity”.

Consider “QVQLVESGGGLVQAGGSLRLRCAASGSISWLYSMGCYSQAPGKERELVAAISWGGGDTYYADSVKGRFTISRDNAKNTVYLQMHSLKPEDTEVFYCAADSDYYWLAYDYWGQGTQVTLSS”, for which the “polyreactivity (PSR sort gate)” value was “low polyreactivity”.

With “QVQLVESGGGLVQAGGSLRLRCAASGSTFANYAMGWYRQAPGKERELVAAISVGDGSTYYADSVKGRFTISRDNAKNTVYLQMNILKPEDTAVYYCSRVRGGYDSWGQGTQVTVSS”, the “polyreactivity (PSR sort gate)” value is “high polyreactivity”.

As to “QVQLVESGGGLVQAGGSLRLRCAASGSTFGRYAKVWYRQAPGKEREFVAAISWSGGSTYYADSVKGRFTISRDNAKNTVYLQMNSLKPEDTAVYYCARYSWRGLAEFDSWGQGTQVTVSS”, the “polyreactivity (PSR sort gate)” value is “low polyreactivity”.

For “QVQLVESGGGLVQAGGSLRLRCAASGSTFQTYAMGWYRQAPGKERELVAAITSGGATNYADSVKGRFTISRDNAKNTVFLQMNFLTPEVTAVYYCAVRLIDQTSDHRLQYDYWGQGTQVTVSS”, the “polyreactivity (PSR sort gate)” value is on record as “low polyreactivity”.

Take “QVQLVESGGGLVQAGGSLRLRCAASGSTFWGYAMGWYRQAPGKERELVASITWRGGSTYADSVKGRFTISRDNAKNTVYLQMNSLKPEDTAVYYCNALPYRYRRYDYWGQGTQVTVSS”: the “polyreactivity (PSR sort gate)” value is recorded as “low polyreactivity”.

“QVQLVESGGGLVQAGGSLRLRCAASGSTLYGNAMGWYRQAPGKERDLVAVISRGGTTSYADSVKGRFTISRDNAKNTVYLQMKSLKPEDTAVYYCAVDVASLSTWPPAGRLVDYWGQGTQVTVSS”: the “polyreactivity (PSR sort gate)” value is “low polyreactivity”.

As to “QVQLVESGGGLVQAGGSLRLRCAASGYTLGPYAMGWYRPAPGKQRELVAAISWGGGRTYYADSVKGRFTISRDNAKNTVYLLMNSLKPEDTAVYYCAAKWSLVRDGPKYDYWGQGTQVTVSS”, the “polyreactivity (PSR sort gate)” value is reported as “low polyreactivity”.

In the case of “QVQLVESGGGLVQAGGSLRLRCADSGSIFHCNAMGWNRQAPGKERELVAGITTSGGTTYYADTVKGRFTISRDNAKNTVYVQMKSLKPEATAVYYCAARIIRWRPRWPSYGKYDYWGQVTQVTVSS”, the “polyreactivity (PSR sort gate)” value is reported as “low polyreactivity”.

Turning to “QVQLVESGGGLVQAGGSLRLRCASSGITFRGYAMGWYRQAPGKERELVASITNTDSTYYADSVKGRFTISRDNAKNTVYLQMNSLKPEDTAVYYCAARRGRKYGYWGQGTQVTVSS”, the “polyreactivity (PSR sort gate)” value is listed as “high polyreactivity”.

On to “QVQLVESGGGLVQAGGSLRLRCDASGLIFYDNMGWYRQAPGKERELVAAISSSGGSTSYADSVKGRFTISRDNAKNTVYLQMNSLKPEDTAVYYCAADSYPAYLGFVGFDYWGQGTQVTVSS”, for which the “polyreactivity (PSR sort gate)” value is on record as “low polyreactivity”.

On to “QVQLVESGGGLVQAGGSLRLRCDASGRIFISYTMGWSRPPPGKERELVAGIDSSGTSTYYADSVKGRFTISRDNAKNTVYLLMNSLKPEDNADYYCNVDGYWKDTSTEMVYWGQGTQVTVSS”, for which the “polyreactivity (PSR sort gate)” value was “low polyreactivity”.

For “QVQLVESGGGLVQAGGSLRLRGAASGRTFPGYAMGWCRPAPGNERELVATICSADSTNYADSVMGRFTSSRDNAKNTVKLHMKSLKPEDTAVYFCAQRYGRNGAAAQYNVWYRYDYWGQGTQVTVSS”, the “polyreactivity (PSR sort gate)” value is reported as “low polyreactivity”.

For the sequence “QVQLVESGGGLVQAGGSLRLSAASGSTLAGNTMGWYRQAPGKERELVAAINDSGGSTYYADSVKGRFTISRDNAKNTVYLQMNSLKPEDTAVYYCNAEGSAYIEDGYDYWGQGTQVTVSS”, the “polyreactivity (PSR sort gate)” value is recorded as “low polyreactivity”.

For “QVQLVESGGGLVQAGGSLRLSCAAAGFIFWSNAMGWYRQAPGKERELVAAIRNTGSTNYADSVKGRFTISRDNAKNTVYLQMNSLKPEDTAVYYCATKPYPYYLYYYWGQGTQVTVSS”, the “polyreactivity (PSR sort gate)” value is given as “high polyreactivity”.

For the sequence “QVQLVESGGGLVQAGGSLRLSCAAAGNIFSPYAMGWYIQAPGKERELVAAISYSGGSTYYADSVKGRFTISRDIAKNTFYLQMNSLKPEDTAVYYCAVVYSYYLAVLGYWDYDYWGQGTQVTVSS”, the “polyreactivity (PSR sort gate)” value is “low polyreactivity”.

On to “QVQLVESGGGLVQAGGSLRLSCAAAGRISVFYTMGWYRQAPGKERVLVAVIRTSGGRTNYADSVKGRFTISRDNAKNTVYLQMNSLKPEDTAVYYWDADAVIEWTEWYSAWWYYYWGQGTQVTVSS”, for which the “polyreactivity (PSR sort gate)” value is “low polyreactivity”.

“QVQLVESGGGLVQAGGSLRLSCAAAGRLFGPYAMGWYGQAPGKERELVASISYSGGSTYYADSVKGRFTISRDNAKNTVYLQMNSLKAEDTAVYYCAKGGYWRGYNYWGQGTQVTVSS”: the “polyreactivity (PSR sort gate)” value is listed as “low polyreactivity”.

As for “QVQLVESGGGLVQAGGSLRLSCAAAGRTFGDYDMGWYRQAPGKERELVAAITSDGTTYYADSVKGRFTISRDNAKNTVYLQMNSLKPEDTAVYYCAADYWYVSWYDYWGQGTQVTVSS”, the “polyreactivity (PSR sort gate)” value is “low polyreactivity”.

For “QVQLVESGGGLVQAGGSLRLSCAAAGSIFRGYAMGWYRQEPEKERELVADISRRGGSTYYADSVKGRFTISRDNAKNTVYLQMNSLKPEDTAVYYCAKDGTGAGTYDYWGQGTQVTVSS”, the “polyreactivity (PSR sort gate)” value is on record as “low polyreactivity”.

In the case of “QVQLVESGGGLVQAGGSLRLSCAAAGSTFSSYAMVWYRQAPGKERELVAAISTSGGRTYYADSVKGRFTISRDNAKNAVFLQMNSLKPEDTAVYYCAKKGICYVRYYYWGQGTLVTVSS”, the “polyreactivity (PSR sort gate)” value was “high polyreactivity”.

As for “QVQLVESGGGLVQAGGSLRLSCAACGFIFHFYAMGWYRQAPGKERELVASISAIGGSTYYADSVKGRFTISRDNAKNTVYLQMNSLKPEDTAVYYCATYSYRHRRYSRYDYWGQGTQVTVSS”, the “polyreactivity (PSR sort gate)” value is recorded as “high polyreactivity”.

Regarding “QVQLVESGGGLVQAGGSLRLSCAACGFTFAYYAMGWYRQAPGKERELVATITSGGRTYYADSVKGRFTISRDNAKNTVYFQMNSLKPEDTAVYYCAGAGKGRYHFRSTMDYWGQGTQVTVSS”, the “polyreactivity (PSR sort gate)” value was “high polyreactivity”.

In the case of “QVQLVESGGGLVQAGGSLRLSCAACGFTFYYYAMGWYRQAPGKERELVASISASGGITYYADSVKGRFTISRDNAKNTVYLQMNSLKPEDTAVYYCATRQGYRLYYWGQGTQVNVSS”, the “polyreactivity (PSR sort gate)” value is “high polyreactivity”.

As for “QVQLVESGGGLVQAGGSLRLSCAACGFTIRRYAKGWYRQAPGKERELVAAITTGGSTYYADSVKGRFTISRDNAKNTVYFQMNSLKPEETAVYDCAALYPYKQYRLGYDSWGQGTQVTVSS”, the “polyreactivity (PSR sort gate)” value is recorded as “high polyreactivity”.

On to “QVQLVESGGGLVQAGGSLRLSCAACGIIFVYYAMGWYRQAPGKERELVAAISSSGARTYYADSVKGRFTISRDNAKNTVYLQMNSLKPEDTAVYYCAARETRTKPIFYGYNYWGQGTQVTVSS”, for which the “polyreactivity (PSR sort gate)” value was “high polyreactivity”.
